Laboratory results taken from the supplement of paper PMC7877785.
± gives the uncertainty stated by the source.

Experiment: self-splicing fitness, log relative to wild type (ln ratio); higher = more splicing; Tetrahymena group I intron in knt gene, E. coli kanamycin selection, DiMSum; sequences stand for … in CUCUCU…GGAGGGAAAAGUUAUCAGGCAUGCACCUGGUAGCUAGUCUUUAAACCAAUAGAUUGCAUCGGUUUAAAAGGCAAGACCGUCAAAUUGCGGGAAAGGGGUCAACAGCCGUUCAGUACCAAGUCUCAGGGGAAACUUUGAGAUGGCCUUGCAAAGGGUAUGGUAAUAAGCUGACGGACAUGGUCCUAACCACGCAGCCAAGUCCUAAGUCAACAGAUCUUCUGUUGAUAUGGAUGCAGUUCACAGACUAAAUGUCGGUCGGGGAAGAUGUAUUCUUCUCAUAAGAUAUAGUCGGACCUCUCCUUAAUGGGAGCUAGCGGAUGAAGUGAUGCAACACUGGAGCCGCUGGGAACUAAUUUGUAUGCGAAAGUAUAUUGAUUAGUUUUGGAGUACUCGUGGUCG
Outline: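 The eight P1ex-region nucleotides of an intron in the knt kanamycin-resistance gene on pET-22b(+) were all randomised and the library put into E. coli BL21(DE3). Six replicate transformations were grown overnight at 37°C or 30°C on LB agar with or without 25 μg/mL kanamycin, together with 100 μg/mL carbenicillin, 50 μM IPTG and 0.2% rhamnose. Colonies were pooled and amplicon-sequenced on an Illumina HiSeq 2500. Fitness from DiMSum is the error-weighted combination of wild-type-normalised replicate fold changes, kanamycin over none.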

| Sequence | self-splicing fitness (ln) (30 °C) | self-splicing fitness (ln) (37 °C) |
| --- | --- | --- |
| UCAAAGCAAUAUUACGGCUU | -5.11 ± 0.45 | -2.32 ± 0.2 |
| UCAAAGCAAUAUUACGGGAA | -1.5 ± 0.15 | -0.928 ± 0.16 |
| UCAAAGCAAUAUUACGGGCA | -0.629 ± 0.063 | -0.273 ± 0.069 |
| UCAAAGCAAUAUUACGGGUC | -3.59 ± 0.23 | -3.14 ± 0.25 |
| UCAAAGCAAUAUUACGGUGU | -2.8 ± 0.11 | -1.31 ± 0.099 |
| UCAAAGCAAUAUUACGUAGA | -1.47 ± 0.082 | -0.85 ± 0.098 |
| UCAAAGCAAUAUUACGUAGC | -4 ± 0.31 | -2.52 ± 0.27 |
| UCAAAGCAAUAUUACGUCAU | -2.36 ± 0.14 | -2.71 ± 0.2 |
| UCAAAGCAAUAUUACGUCCA | -1.19 ± 0.13 | -0.715 ± 0.13 |
| UCAAAGCAAUAUUACGUGAC | -3.36 ± 0.12 | -2.15 ± 0.16 |
| UCAAAGCAAUAUUACGUGAU | -3.95 ± 0.17 | -2.64 ± 0.21 |
| UCAAAGCAAUAUUACGUUGG | -3.81 ± 0.18 | -3 ± 0.24 |
| UCAAAGCAAUAUUACGUUGU | -3.4 ± 0.13 | -2.02 ± 0.12 |
| UCACAGCAAUAUUACGAACA | -1.58 ± 0.1 | -1.64 ± 0.11 |
| UCACAGCAAUAUUACGAACG | -1.61 ± 0.18 | -1.19 ± 0.21 |
| UCACAGCAAUAUUACGAAGA | -1.18 ± 0.085 | -1.09 ± 0.093 |
| UCACAGCAAUAUUACGAAUC |  | -1.26 ± 0.17 |
| UCACAGCAAUAUUACGACUA | -1.21 ± 0.14 | -0.431 ± 0.12 |
| UCACAGCAAUAUUACGAGUC | -2.97 ± 0.15 | -3.01 ± 0.2 |
| UCACAGCAAUAUUACGAUCA | -1.45 ± 0.091 | -0.503 ± 0.088 |
| UCACAGCAAUAUUACGAUGA | -1.29 ± 0.1 | -0.136 ± 0.11 |
| UCACAGCAAUAUUACGCGAC | -3.43 ± 0.21 | -2.51 ± 0.26 |
| UCACAGCAAUAUUACGCGCG | -0.645 ± 0.089 | -0.233 ± 0.11 |
| UCACAGCAAUAUUACGCUCA | -1.61 ± 0.14 | -0.171 ± 0.12 |
| UCACAGCAAUAUUACGCUGU | -2.88 ± 0.16 | -2.19 ± 0.24 |

| Sequence | self-splicing fitness (ln) (30 °C) | self-splicing fitness (ln) (37 °C) |
| --- | --- | --- |
| UCACAGCAAUAUUACGGAUC | -4.77 ± 0.46 | -3.11 ± 0.33 |
| UCACAGCAAUAUUACGGCCA | -1.78 ± 0.28 | -1.19 ± 0.21 |
| UCACAGCAAUAUUACGGGAG | -3.75 ± 0.17 | -3.24 ± 0.22 |
| UCACAGCAAUAUUACGGUGU | -2.41 ± 0.17 | -2.23 ± 0.14 |
| UCACAGCAAUAUUACGUAUG | -0.949 ± 0.063 | -1.54 ± 0.099 |
| UCACAGCAAUAUUACGUCAU | -3.09 ± 0.17 | -1.43 ± 0.12 |
| UCACAGCAAUAUUACGUGCU | -3.75 ± 0.19 | -2.72 ± 0.15 |
| UCACAGCAAUAUUACGUGUA | -2.2 ± 0.089 | -1.09 ± 0.088 |
| UCAGAGCAAUAUUACGACAA |  | -2.96 ± 0.49 |
| UCAGAGCAAUAUUACGACUC | -2.63 ± 0.22 | -2.31 ± 0.26 |
| UCAGAGCAAUAUUACGAUCA | -3.07 ± 0.35 | -2.6 ± 0.31 |
| UCAGAGCAAUAUUACGCAGG |  | 0.137 ± 0.42 |
| UCAGAGCAAUAUUACGCCUG | -3.63 ± 0.3 |  |
| UCAGAGCAAUAUUACGCGUG | -2.31 ± 0.16 | -2.05 ± 0.15 |
| UCAGAGCAAUAUUACGCUUG | -2.27 ± 0.14 | -0.868 ± 0.12 |
| UCAGAGCAAUAUUACGGAGC | -3.49 ± 0.36 | -1.44 ± 0.36 |
| UCAGAGCAAUAUUACGGAGG | -3.4 ± 0.27 | -2.33 ± 0.34 |
| UCAGAGCAAUAUUACGGCAC |  | -2.09 ± 0.33 |
| UCAGAGCAAUAUUACGGGAG | -2.82 ± 0.21 | -2.14 ± 0.34 |
| UCAGAGCAAUAUUACGGGUA | -3.47 ± 0.27 | -2.64 ± 0.31 |
| UCAGAGCAAUAUUACGGUCU | -1.95 ± 0.2 | -2.43 ± 0.39 |
| UCAGAGCAAUAUUACGUGCA | -2.3 ± 0.16 | -2.1 ± 0.18 |
| UCAUAGCAAUAUUACGAAAA | -2.62 ± 0.48 |  |
| UCAUAGCAAUAUUACGAUAG | -3.22 ± 0.19 | -1.79 ± 0.13 |
